T1: human CD84 on cells (human, UniProt Q9UIB8 22-345)
T1 construct: the cells were 300.19 cells stably transfected with CD84 full-length DNA, or Raji, Ramos, MOLM-13 cells, lymphocytes and monocytes with their own CD84; also called LY9B; SLAMF5
T1 sequence: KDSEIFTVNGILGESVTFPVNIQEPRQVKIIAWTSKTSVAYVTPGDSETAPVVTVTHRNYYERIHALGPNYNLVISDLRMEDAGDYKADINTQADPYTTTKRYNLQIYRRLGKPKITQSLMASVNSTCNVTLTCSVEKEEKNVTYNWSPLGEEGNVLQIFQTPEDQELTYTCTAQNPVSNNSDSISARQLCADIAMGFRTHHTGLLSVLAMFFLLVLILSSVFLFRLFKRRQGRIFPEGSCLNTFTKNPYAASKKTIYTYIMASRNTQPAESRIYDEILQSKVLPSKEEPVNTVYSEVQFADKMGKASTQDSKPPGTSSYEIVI

B1: GYCD84.5.171 (antibody, IgG1, V domains shown)
VH: EVQLVESGGGLVQPKGSLKLACAASGFTFNIYAMNWVRQAPGKGLEWVARIRSKSNNYARFYADSVKDRFTISRDDSQSMLYLQMNNLKTEDTAMYYCVRPLRSYFSMDYWGQGTSVTVSS
VL: SIVMTQSPKSMSMSVGERVTLSCKASENVDTYVSWYQQKPEQSPKLLIYGASNRYTGVPDRFTGSGSATDFTLTISSVKAEDLADYHCGQTYSYPWTFGGGTKLEIK
notes: tested as hybridoma supernatant
B2: 152-1D5 (antibody, IgG1, V domains shown)
VH: QVQLQQPGAEVVQPGTSVKLSCKASGYNFTNYWINWVKLRPGQGLEWIGDIYPVSGTTNYNEKFKRKATLTVDTSSSTGNMQLSSLASEDSALYYCASGTGRFAYWGQGTLVTVSA
VL: DIVLTQSPASLAVSLGQRATISCRASQSVSTSSYSYMHWYQQKPGQPPKLLIKFASNLESGVPARFSGSGSGTDFTLNIHPVEEEDTATYYCQHSWEIPYTFGGGTKLEIK
notes: tested as hybridoma supernatant; also called anti-CD84 mouse monoclonal antibody 152-1D5
B3: GYCD84.1-97 (antibody, IgG2a, V domains shown)
VH: QVQLQQPGAELVKPGTSVKLSCKASGYNFTSYWINWVKLRPGQGLEWIGDIYLGSGSTNYNEKFKSKATLTVDTSSSSAYMQLSSLVSEDSALYYCATSGGYLGYWGQGTTLTVSS
VL: DIVLTQSPASLAVSLGQRATISCRASQSVSTSSYSYMHWYQQKPGQPPKLLIKFASNLESGVPARFSGSGSGTDFTLNIHPVEEEDTATYYCQHSWEIPYTFGGGTKLEIK
notes: as for B1

The assay deals with T1, human CD84 on cells. Kind of assay: flow cytometry, hybridoma supernatant, 300.19 cells transfected with CD84. Background: In flow cytometry, cells or beads pass a laser one at a time.
As for B1, the 300.19-CD84 binding stood at 93.2%.

The molecule B2 yielded a 300.19-CD84 binding of 92.5%.

Regarding B3, the 300.19-CD84 binding amounted to 97.7%.

For the origin of these results see patent US20250064853A1 (GYALA THERAPEUTICS SOCIEDAD LIMITADA, published 2025).
